“And” between values parts separate entries of the source, which are not always exact repeats. Equal values may be shown once.
How the values were obtained:
[1] = target: truncated protein consisting of the main body of L. farciminis OxDC (aa 22-373) (L. farciminis); assay: crystal structure
[2] = target: L. farciminis oxalate decarboxylase (OxDC), as used for size-exclusion chromatography (L. farciminis); assay: SEC

stoichiometry N [1]	stoichiometry N [2]	Substance
6		truncated protein consisting of the main body of L. farciminis OxDC (aa 22-373) (domain or fragment)
	2 and 6	L. farciminis oxalate decarboxylase (OxDC), as used for size-exclusion chromatography (enzyme)
